PMC3002993

Tests used:
Test in all cases: co-immunoprecipitation (HA-specific IP), Western blot densitometry
[1] = molecular target: nonstructural protein 3 (NS3) of JFH1 (UniProt Q99IB8); details: Huh7.5 cells transfected with full-length genome, harvested 72 h later; two independent experiments; read off a plot
[2] = molecular target: nonstructural protein 5A (NS5A) of JFH1mut4-6 (UniProt Q99IB8); details: Huh7.5 cells transfected with full-length genome, harvested 72 h later; two independent experiments; read off a plot
p7 of JFH1 = p7 of JFH1 (UniProt Q99IB8); details: Huh7.5 cells transfected with full-length genome, harvested 72 h later; two independent experiments; read off a plot
[3] = molecular target: envelope glycoprotein E2 of JFH1 (UniProt Q99IB8); details: harvested 72 h later, two independent experiments, read off a plot
E2 V341A of JFH1 = details: F77A-E2 genome; Huh7.5 cells, harvested 72 h later; two independent experiments; read off a plot
NS3 Q221L of JFH1 = details: W35F-NS3 genome; Huh7.5 cells, harvested 72 h later; two independent experiments; read off a plot

“HA- and Flag-tagged NS2 of JFH1mut4-6 (HAF-NS2) (from UniProt Q99IB8) CT1.h” showed a percent of parent [1] of 26%, a percent of parent [2] of 56% and a percent of parent (p7 of JFH1) of 23%. The percent of parent ([3]; Huh7.5 cells transfected with full-length genome) was 30% and the percent of parent ([3]; genome also carries the pseudoreversion p7-E3D (CT1.h-p7), Huh7.5 cells) was 84%.

Work on m1; m2 NS2:F77A; E2:V341A yielded a percent of parent (E2 V341A of JFH1) of 89%.

m1; m4 NS2:W35F; NS3:Q221L gave a percent of parent (NS3 Q221L of JFH1) of 52%.
